Results reported in patent publication US20250215104A1 (WALDEN BIOSCIENCES, published 2025).

Columns and labels:
Assay in all cases: BLI (Octet) off-rate screen of scFv clones
[1] = biological target: T1, human soluble urokinase plasminogen activator receptor (suPAR) (human, UniProt Q03405 23-303, limits assumed)
T1 construct: Target antigen of the scFv off-rate screen; also called hsuPAR; human suPAR
T1 sequence (Q03405 23-303 limits assumed): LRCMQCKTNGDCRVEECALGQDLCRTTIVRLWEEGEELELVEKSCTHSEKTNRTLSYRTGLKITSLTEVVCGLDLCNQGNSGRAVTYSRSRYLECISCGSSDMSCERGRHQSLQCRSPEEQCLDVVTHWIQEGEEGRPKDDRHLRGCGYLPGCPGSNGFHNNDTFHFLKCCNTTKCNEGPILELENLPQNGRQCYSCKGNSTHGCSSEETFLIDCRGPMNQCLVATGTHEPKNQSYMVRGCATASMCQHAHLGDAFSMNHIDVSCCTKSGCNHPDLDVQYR

[2] = biological target: T2, cynomolgus soluble urokinase plasminogen activator receptor (suPAR) (cynomolgus, UniProt Q9GK78 23-303, limits assumed)
T2 construct: Target antigen of the scFv off-rate screen; also called cynomolgus suPAR; cynomolgus uPAR
Target sequence in this assay (Q9GK78 23-303 limits assumed): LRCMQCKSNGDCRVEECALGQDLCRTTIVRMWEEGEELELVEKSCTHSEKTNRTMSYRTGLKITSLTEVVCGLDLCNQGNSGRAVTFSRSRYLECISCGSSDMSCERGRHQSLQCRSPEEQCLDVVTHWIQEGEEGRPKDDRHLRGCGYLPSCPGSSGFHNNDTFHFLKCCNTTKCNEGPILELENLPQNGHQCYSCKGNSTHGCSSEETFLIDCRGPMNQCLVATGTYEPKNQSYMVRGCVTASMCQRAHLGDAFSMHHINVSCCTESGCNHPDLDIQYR

[3] = biological target: T3, human soluble urokinase plasminogen activator receptor (suPAR) (human, UniProt Q03405 23-303, limits assumed)
T3 construct: Column head says only 'human'; also called human suPAR; hsuPAR
T3 sequence (Q03405 23-303 limits assumed): as the sequence (Q03405 23-303 limits assumed) above

[4] = biological target: T4, cynomolgus soluble urokinase plasminogen activator receptor (suPAR) (cynomolgus, UniProt Q9GK78 23-303, limits assumed)
T4 construct: Column head says only 'cynomologus'; also called cynomolgus suPAR; cynomolgus uPAR
Target sequence in this assay (Q9GK78 23-303 limits assumed): as the sequence (Q9GK78 23-303 limits assumed) above

Row | Binder | koff [1] [s⁻¹] | koff [2] [s⁻¹] | koff [3] [s⁻¹] | koff [4] [s⁻¹]
1 | suPAR_DB06_F07 (scFv, V domains shown) VH: QVQLVQSGAEVKKPGASVKVSCKASGYTFTNYYMHWVRQAPGQGLEWMGWIDHENGNTIYDQKFQGRVTMTRDTSTSTVYMELSSLRSEDTAVYYCARGYDVDWFVYWGQGTLVTVSS VL: DIQMTQSPSSLSASVGDRVTITCSARSSVSYMYWYQQKPGKAPKLLIYRTSNLASGVPSRFSGSGSGTDFTLTISSLQPEDFATYYCQQYHSYPPTFGGGTKVEIK | 0.00402 | 0.000455 | – | –
2 | suPAR_DB02_F05 (scFv, V domains shown, scFv clone from phage display) VH: QVQLVQSGAEVKKPGASVKVSCKASGYTFTGNYMQWVRQAPGQGLEWMGWIDHENGNTIYDQKFQGRVTMTRDTSTSTVYMELSSLRSEDTAVYYCARGYDVDWFVYWGQGTLVTVSS VL: DIQMTQSPSSLSASVGDRVTITCSARSSVSYMYWYQQKPGKAPKLLIYRTSNLASGVPSRFSGSGSGTDFTLTISSLQPEDFATYYCQQYHSYPPTFGGGTKVEIK | – | – | 0.00613 | 0.000161
3 | suPAR_DB02_F10 (scFv, V domains shown, scFv clone from phage display) VH: QVQLVQSGAEVKKPGASVKVSCKASGYTFTTYYMHWVRQAPGQGLEWMGWIDPEGGNTSYDQKFQGRVTMTRDTSTSTVYMELSSLRSEDTAVYYCARGYDVDWFVYWGQGTLVTVSS VL: DIQMTQSPSSLSASVGDRVTITCSARSSVSYMYWYQQKPGKAPKLLIYRTSNLASGVPSRFSGSGSGTDFTLTISSLQPEDFATYYCQQYHSYPPTFGGGTKVEIK | – | – | 0.00106 | 0.000375
4 | suPAR_DB02_F02 (scFv, V domains shown, scFv clone from phage display) VH: QVQLVQSGAEVKKPGASVKVSCKASGYTFTDYYMHWVRQAPGQGLEWMGWIDPENGNTIYDQKFQGRVTMTRDTSTSTVYMELSSLRSEDTAVYYCARGYDVDWFVYWGQGTLVTVSS VL: DIQMTQSPSSLSASVGDRVTITCSARSSVSYMYWYQQKPGKAPKLLIYRTSNLQSGVPSRFSGSGSGTDFTLTISSLQPEDFATYYCQQYHSYPPTFGGGTKVEIK | – | – | 0.00179 | 0.00048
5 | suPAR_DB06_B10 (scFv, V domains shown) VH: QVQLVQSGAEVKKPGASVKVSCKASGDTLTNYYMHWVRQAPGQGLEWMGWIDHENGSTIYAQKFQGRVTMTRDTSTSTVYMELSSLRSEDTAVYYCARGYDVDWFVYWGQGTLVTVSS VL: DIQMTQSPSSLSASVGDRVTITCSARSSVSYMYWYQQKPGKAPKLLIYRTSNLQTGVPSRFSGSGSGTDFTLTISSLQPEDFATYYCQQYHSYPPTFGGGTKVEIK | 0.00141 | 0.000587 | – | –
6 | suPAR_DB02_H05 (scFv, V domains shown, scFv clone from phage display) VH: QVQLVQSGAEVKKPGASVKVSCKASGYFFTAYYMHWVRQAPGQGLEWMGWIDPENGNTIYDQKFQGRVTMTRDTSTSTVYMELSSLRSEDTAVYYCARGYDVDWFVYWGQGTLVTVSS VL: DIQMTQSPSSLSASVGDRVTITCSARSSVSYMYWYQQKPGKAPKLLIYRTSNLASGVPSRFSGSGSGTDFTLTISSLQPEDFATYYCQQYHSYPPTFGGGTKVEIK | – | – | 0.00442 | 0.00021
7 | suPAR_DB02_G07 (scFv, V domains shown, scFv clone from phage display) VH: QVQLVQSGAEVKKPGASVKVSCKASGYTFTSYYMHWVRQAPGQGLEWMGWIDPENGSTIYDQKFQGRVTMTRDTSTSTVYMELSSLRSEDTAVYYCARGYDVDWFVYWGQGTLVTVSS VL: DIQMTQSPSSLSASVGDRVTITCSASQSVSYMYWYQQKPGKAPKLLIYRTSNLASGVPSRFSGSGSGTDFTLTISSLQPEDFATYYCQQYHSYPPTFGGGTKVEIK | – | – | 0.00367 | 0.000286
8 | suPAR_DB02_G08 (scFv, V domains shown, scFv clone from phage display) VH: QVQLVQSGAEVKKPGASVKVSCKASGDTFTSYYMHWVRQAPGQGLEWMGWIDHEGGNTSYEQKFQGRVTMTRDTSTSTVYMELSSLRSEDTAVYYCARGYDVDWFVYWGQGTLVTVSS VL: DIQMTQSPSSLSASVGDRVTITCSARSSVSYMYWYQQKPGKAPKLLIYRTSNLASGVPSRFSGSGSGTDFTLTISSLQPEDFATYYCQQYHSYPPTFGGGTKVEIK | – | – | 0.00395 | 0.000103
9 | suPAR_DB02_H01 (scFv, V domains shown, scFv clone from phage display) VH: QVQLVQSGAEVKKPGASVKVSCKASGYTFTGQYIHWVRQAPGQGLEWMGWIDHSGGSTIYDQKFQGRVTMTRDTSTSTVYMELSSLRSEDTAVYYCAGGYDVDWFVYWGQGTLVTVSS VL: DIQMTQSPSSLSASVGDRVTITCSARSSVSYMYWYQQKPGKAPKLLIYRTSSLASGVPSRFSGSGSGTDFTLTISSLQPEDFATYYCQQYHSYPPTFGGGTKVEIK | – | – | 0.00315 | 0.000218
10 | suPAR_DB06_B11 (scFv, V domains shown) VH: QVQLVQSGAEVKKPGASVKVSCKASGYTFTSNYIHWVRQAPGQGLEWMGWIDHENGNTIYDQKFQGRVTMTRDTSTSTVYMELSSLRSEDTAVYYCAEGYDVDWFVYWGQGTLVTVSS VL: DIQMTQSPSSLSASVGDRVTITCRARQSVSYMYWYQQKPGKAPKLLIYRTSNLASGVPSRFSGSGSGTDFTLTISSLQPEDFATYYCQQYHSYPPTFGGGTKVEIK | 0.00489 | 0.000128 | – | –
11 | suPAR_DB02_G01 (scFv, V domains shown, scFv clone from phage display) VH: QVQLVQSGAEVKKPGASVKVSCKASGHTFTDYYMHWVRQAPGQGLEWMGWISPNSGGTNYAQKFQGRVTMTRDTSTSTVYMELSSLRSEDTAVYYCARGYDVDWFVYWGQGTLVTVSS VL: DIQMTQSPSSLSASVGDRVTITCSARSSVSYMYWYQQKPGKAPKLLIYRTSNLASGVPSRFSGSGSGTDFTLTISSLQPEDFATYYCQQYHSYPPTFGGGTKVEIK | – | – | 0.00438 | 5.19e-05
12 | suPAR_DB02_E10 (scFv, V domains shown, scFv clone from phage display) VH: QVQLVQSGAEVKKPGASVKVSCKASGYTFTNYFMHWVRQAPGQGLEWMGWIDHENGNTIYDQKFQGRVTMTRDTSTSTVYMELSSLRSEDTAVYYCARGYDVDWFVYWGQGTLVTVSS VL: DIQMTQSPSSLSASVGDRVTITCSARSSVSYMYWYQQKPGKAPKLLIYRTSNLASGVPSRFSGSGSGTDFTLTISSLQPEDFATYYCQQYHSYPPTFGGGTKVEIK | – | – | 0.00552 | 0.000189
13 | suPAR_DB02_G02 (scFv, V domains shown, scFv clone from phage display) VH: QVQLVQSGAEVKKPGASVKVSCKASGYTFTRYYMHWVRQAPGQGLEWMGWIDHENGSTIYAQKFQGRVTMTRDTSTSTVYMELSSLRSEDTAVYYCARGYDVDWFVYWGQGTLVTVSS VL: DIQMTQSPSSLSASVGDRVTITCSARSSVSYMYWYQQKPGKAPKLLIYRTSSLQSGVPSRFSGSGSGTDFTLTISSLQPEDFATYYCQQYHSYPPTFGGGTKVEIK | – | – | 0.00242 | 0.000125
14 | suPAR_DB02_H03 (scFv, V domains shown, scFv clone from phage display) VH: QVQLVQSGAEVKKPGASVKVSCKASGYTFTTYYMHWVRQAPGQGLEWMGWIDPEGGSTIYDQKFQGRVTMTRDTSTSTVYMELSSLRSEDTAVYYCARGYDVDWFVYWGQGTLVTVSS VL: DIQMTQSPSSLSASVGDRVTITCSARSSVSYMYWYQQKPGKAPKLLIYRTSNLASGVPSRFSGSGSGTDFTLTISSLQPEDFATYYCQQYHSYPPTFGGGTKVEIK | – | – | 0.00594 | 0.000524
15 | suPAR_DB02_G12 (scFv, V domains shown, scFv clone from phage display) VH: QVQLVQSGAEVKKPGASVKVSCKASGFNIKDYYIHWVRQAPGQGLEWMGWIDPENGSTIYDQKFQGRVTMTRDTSTSTVYMELSSLRSEDTAVYYCARGYDVDWFVYWGQGTLVTVSS VL: DIQMTQSPSSLSASVGDRVTITCSASSSVSYMYWYQQKPGKAPKLLIYRTSSLQSGVPSRFSGSGSGTDFTLTISSLQPEDFATYYCQQYHSYPPTFGGGTKVEIK | – | – | 0.00371 | 0.000584
16 | suPAR_DB02_F03 (scFv, V domains shown, scFv clone from phage display) VH: QVQLVQSGAEVKKPGASVKVSCKASGYTFTSYYVHWVRQAPGQGLEWMGWIDPEGGSTIYDQKFQGRVTMTRDTSTSTVYMELSSLRSEDTAVYYCARGYDVDWFVYWGQGTLVTVSS VL: DIQMTQSPSSLSASVGDRVTITCSARSSVSYMYWYQQKPGKAPKLLIYRTSSLQSGVPSRFSGSGSGTDFTLTISSLQPEDFATYYCQQYHSYPPTFGGGTKVEIK | – | – | 0.00504 | 0.000492
17 | suPAR_DB02_E12 (scFv, V domains shown, scFv clone from phage display) VH: QVQLVQSGAEVKKPGASVKVSCKASGYTFTSNYMHWVRQAPGQGLEWMGWIDHENGNTIYDQKFQGRVTMTRDTSTSTVYMELSSLRSEDTAVYYCARGYDVDWFVYWGQGTLVTVSS VL: DIQMTQSPSSLSASVGDRVTITCSASQSVSYMYWYQQKPGKAPKLLIYRTSNLASGVPSRFSGSGSGTDFTLTISSLQPEDFATYYCQQYHSYPPTFGGGTKVEIK | – | – | 0.00675 | 0.000215
18 | suPAR_DB02_G06 (scFv, V domains shown, scFv clone from phage display) VH: QVQLVQSGAEVKKPGASVKVSCKASGYTFTNYYMHWVRQAPGQGLEWMGWIDHEGGSTIYAQKFQGRVTMTRDTSTSTVYMELSSLRSEDTAVYYCARGYDVDWFVYWGQGTLVTVSS VL: DIQMTQSPSSLSASVGDRVTITCSARSSISYMYWYQQKPGKAPKLLIYRTSNLASGVPSRFSGSGSGTDFTLTISSLQPEDFATYYCQQYHSYPPTFGGGTKVEIK | – | – | 0.00137 | 0.000132
19 | suPAR_DB02_G03 (scFv, V domains shown, scFv clone from phage display) VH: QVQLVQSGAEVKKPGASVKVSCKASGYTFTSYYMHWVRQAPGQGLEWMGWIDPENGNTIYDQKFQGRVTMTRDTSTSTVYMELSSLRSEDTAVYYCARGYDVDWFVYWGQGTLVTVSS VL: DIQMTQSPSSLSASVGDRVTITCSASQSVSYMYWYQQKPGKAPKLLIYRTSNLASGVPSRFSGSGSGTDFTLTISSLQPEDFATYYCQQYHSYPPTFGGGTKVEIK | – | – | 0.00346 | 0.00025
20 | suPAR_DB02_G04 (scFv, V domains shown, scFv clone from phage display) VH: QVQLVQSGAEVKKPGASVKVSCKASGHTFTGYYIHWVRQAPGQGLEWMGWIDHENGNTIYDQKFQGRVTMTRDTSTSTVYMELSSLRSEDTAVYYCARGYDVDWFVYWGQGTLVTVSS VL: DIQMTQSPSSLSASVGDRVTITCSARSSVSYMYWYQQKPGKAPKLLIYRTSNLASGVPSRFSGSGSGTDFTLTISSLQPEDFATYYCQQYHSYPPTFGGGTKVEIK | – | – | 0.00448 | 9.86e-05
